Reference: patent publication US20240209104A1

What was measured:
[1] = target: OX40 on OX40 over-expressed cells (UniProt P43489); test: flow cytometry, 1 µg/ml isotype control on OX40 over-expressed cells (PBS: 1388)
[2] = target: OX40 on OX40 over-expressed cells (UniProt P43489); test: flow cytometry, 1 µg/ml positive reference on OX40 over-expressed cells

Sequence of OX40 on OX40 over-expressed cells (P43489 29-277): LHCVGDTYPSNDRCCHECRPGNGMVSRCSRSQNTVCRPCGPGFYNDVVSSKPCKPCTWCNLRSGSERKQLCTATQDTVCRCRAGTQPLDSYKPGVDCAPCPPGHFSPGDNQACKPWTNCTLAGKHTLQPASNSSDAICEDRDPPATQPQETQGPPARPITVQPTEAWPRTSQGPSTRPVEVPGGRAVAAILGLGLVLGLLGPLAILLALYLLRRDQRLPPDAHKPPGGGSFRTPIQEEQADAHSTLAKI

Row | Y586 channel PE fluorescence value [1] | Y586 channel PE fluorescence value [2] | Substance
1 | 1830 | – | IgG2a isotype control (clone MG2a-53, Biogene) (antibody)
2 | – | 210000 | anti-OX40 antibody (clone ACT35, Biogene)
